Test system: rat brain endothelial cells: RBECs
Type: cell-based
Description: Thus, a “t-PA-induced BBB dysfunction model” was prepared by the loading of ischemia and t-PA onto an in vitro BBB model. […] The resulting sample was left for 48 hours under 95% N2/5% CO2 (ischemia) conditions. Then, the permeability test was conducted.

t-PA: tissue plasminogen activator, a thrombolytic drug for cerebral infarction; t-PA injection (Activacin; Kyowa Hakko Kirin Co., Ltd.)
permeability of albumin (Evans blue-albumin: EBA) on loading of t-PA under ischemic conditions: increased the permeability | permeability of fluorescein sodium on loading of t-PA under ischemic conditions: increased the permeability
